In US20230235059A1 (published 2023):
Changes are numbered by the printed parent chain.

Assays:
Experiment in all cases: SPR
[1] = molecular target: Recombinant human PD-1-His (Sino Biological catalog #10377-H08H-B) (UniProt Q15116 25-167)
[2] = molecular target: T1, Recombinant rhesus monkey PD-1-His (Sino Biological catalog #90305-K08H)
T1 chain: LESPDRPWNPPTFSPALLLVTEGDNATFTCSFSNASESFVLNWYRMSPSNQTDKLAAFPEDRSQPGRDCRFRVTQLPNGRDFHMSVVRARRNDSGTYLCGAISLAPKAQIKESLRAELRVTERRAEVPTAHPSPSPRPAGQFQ

[3] = molecular target: T2, Recombinant cynomolgus monkey PD-1-His (Sino Biological catalog #90311-C08H)
T2 chain: T1 chain with P10A, R67Q, Q75R

B1: HPD-BB9 (antibody, V domains shown)
VH: QVQLVQSGAEVKKPGASVKVSCKASGFRLTTNGISWVRQAPGQGLEWMGWISAGGGPTNYAQKLQGRVTMTTDTSTSTAYMELRSLRSDDTAVYYCAKGLYGTKDAWGQGTLVTVSS
VL: QSVLTQPPSVSEVPGQRVTISCSGGGSNIGSNAVNWYQHFPGKAPKLLIYYNDLLPSGVSDRFSASKSGTSASLAISGLRSEDEADYYCAAWDDNLSAYVFATGTKVTVL
Question: How did the Kd [1] turn out when B1 was run?
Answer: Its Kd is 12.2 nM.

Question: What about the Kd [2] of the same binder?
Answer: The Kd was 3.33 nM.

Question: What about the Kd [3] of the same binder?
Answer: Its Kd is 35.2 nM.
